Reference: publication PMC9982066, “Inhibition of Ehrlichia chaffeensis infection by cell-permeable macrocyclic peptides that bind type IV secretion effector Etf-1” (PNAS Nexus, 2023)
Starred links: 1 amine or outer side, 2 acyl side, 3 side chain; linkers in the order of their positions; H or OH if unused. Positions of bridges follow the written chain, without caps; N, C: chain ends. Non-standard residues stand in square brackets, D forms with d. No end group written: not given here. Trimesoyl = O=C(c1cc(C(=O)[*:2])cc(C(=O)[*:3])c1)[*:1]; Phe(4-Cl) = N[C@@H](Cc1ccc(Cl)cc1)C(=O)O; Phe(4-F) = N[C@@H](Cc1ccc(F)cc1)C(=O)O; 2Nal = N[C@@H](Cc1ccc2ccccc2c1)C(=O)O; d2Nal = N[C@H](Cc1ccc2ccccc2c1)C(=O)O; βAsp = O=C(O)[C@H](CC(=O)[*:2])N[*:1]; Nle = CCCC[C@H](N)C(=O)O; Orn = NCCC[C@H](N)C(=O)O; Dap = NC[C@H](N)C(=O)O; TMA = not defined here

B1: FAM-labeled macrocyclic peptide B22 (peptide)
chain: VXNHAXFXRRRRX
modifications: not fully specified; carboxyfluorescein (FAM) at the C-terminus through a β-Ala-β-Ala-Lys linker
B2: FAM-labeled macrocyclic peptide B17 (peptide)
chain: XFGDYXFXRRRRX
modifications: not fully specified; carboxyfluorescein (FAM) at the C-terminus through a β-Ala-β-Ala-Lys linker
B3: FAM-labeled macrocyclic peptide B7-133-5 (peptide)
chain: YDHDHLXFXRRRRX
modifications: not fully specified; same peptide as Dm35 (Table S3); bicyclic via TMA to Dap7 and Dap14; D2=isoAsp, D-Leu6, X7/X14=Dap, F8=4-chloro-Phe, X9=D-2-Nal, D-Arg10, D-Arg12; linker Lys(FAM) left out
B4: FAM-labeled macrocyclic peptide B13 (peptide)
chain: EHFEHAXFXRRRX
modifications: not fully specified; carboxyfluorescein (FAM) at the C-terminus through a β-Ala-β-Ala-Lys linker
B5: macrocyclic peptide C6, FAM-labelled (peptide)
chain: QHS[dV][Dap][dF][2Nal]R[dR]R[Dap]
modifications: linker 5-11 via TMA; not fully specified (C-terminus); reading uncertain
B6: macrocyclic peptide C19, FAM-labelled (peptide)
chain: IHA[Orn][dK][Dap]F[2Nal]RRR[Dap]
modifications: linker 6-12 via TMA; not fully specified (C-terminus); reading uncertain
B7: macrocyclic peptide C9, FAM-labelled (peptide)
chain: IDA[Nle]H[Dap]F[2Nal]RRR[Dap]
modifications: linker 6-12 via TMA; not fully specified (C-terminus); reading uncertain
B8: macrocyclic peptide B7-133-4, FAM-labelled (peptide)
chain: Y[Nle][dE]QG[dL][Dap][Phe(4-Cl)][d2Nal][dR]R[dR]R[Dap]-{Lys(FAM)}
modifications: linker N-7-14 via Trimesoyl; not fully specified (N-terminus)
B9: macrocyclic peptide B7-133-2, FAM-labelled (peptide)
chain: Y[dA]D[dY][dA][dL][Dap][Phe(4-Cl)][d2Nal][dR]R[dR]R[Dap]-{Lys(FAM)}
modifications: linker N-7-14 via Trimesoyl; not fully specified (N-terminus)
B10: macrocyclic peptide B7-133-5, FAM-labelled (peptide)
chain: Y[βAsp]HDH[dL][Dap][Phe(4-Cl)][d2Nal][dR]R[dR]R[Dap]-{Lys(FAM)}
modifications: linker N-7-14 via Trimesoyl; not fully specified (N-terminus)
B11: macrocyclic peptide B7-131-2, FAM-labelled (peptide)
chain: YH[d2Nal]QS[Phe(4-F)][dL][Dap][Phe(4-Cl)][d2Nal][dR]R[dR]R[Dap]-{Lys(FAM)}
modifications: linker N-8-15 via Trimesoyl; not fully specified (N-terminus)
B12: biotinylated full-length Etf-1 protein (natural protein, E. chaffeensis, UniProt Q2GG12 1-380, looked up)
chain: MLTFLKKGANVVIKAAITPTTSKLPHQESVGKYLGGMLKSIIPGQKDPAEKHFDLRMHNRTHKLGVELPARTRIDGHEQEVALKVPSYKLPYQTLQKFAAWQEQDKEGEVEETKKDTLTSLINPVSATQEFIRSNTADKYFEKLKALDQQLKEIGGKVTVNSTPGRYKQGLTIELDVSNKSRIAIEKDVRLVLEGLGINDEELVKTFTKRLYKSSTDKKMSSADIHTEKTSSNTDSKDNSNNQDHDIVSPAKRHGSDTVSAVQRQGDDILSSSQEQSSKTGSPTNSTGISNSDFSLTNPQNMPYSRTPMQSSQMLQQLQNQILMQQKPERIFSQAMPTVMQQEIDEIAEDLCQGLNEGPTQGNSNNIGKHFSNPGKVHAR
modifications: biotin (two equivalents of NHS-PEG4-D-Biotin, pH 8.0)
notes: source: E. coli BL21(DE3), purified (HisPur Cobalt resin, size exclusion chromatography), then biotinylated

target: Ehrlichia translocated factor-1 (Etf-1), recombinant 6×His-Etf-1 fusion protein (E. chaffeensis, UniProt Q2GG12 1-380); experiment: fluorescence polarisation; conditions: both partners purified

Q: Which Kd does the source give for B1 here?
A: > 25 µM

Q: B2 was tested. Which Kd did it give?
A: > 25 µM

Q: B3 was tested. Which Kd did it give?
A: > 10 µM

Q: For B4, which Kd is on record?
A: > 25 µM

target: T1, Ehrlichia translocated factor-1 (Etf-1) (Ehrlichia chaffeensis, UniProt Q2GG12 1-380); experiment: fluorescence polarisation; conditions: both partners purified

Q: Which Kd does the source give for B5 here?
A: > 25 µM

Q: B6 was tested. Which Kd did it give?
A: > 25 µM

Q: How did the Kd turn out when B7 was run?
A: > 25 µM

target: T1, Ehrlichia translocated factor-1 (Etf-1); experiment: fluorescence polarisation; conditions: both partners purified; remark: another data set of the same source

Q: How did the Kd turn out when B8 was run?
A: 6.5 ± 0.1 µM

Q: B9 was tested. Which Kd did it give?
A: 8.2 ± 1.2 µM

Q: Which Kd does the source give for B10 here?
A: > 10 µM

Q: How did the Kd turn out when B11 was run?
A: 8.8 ± 0.9 µM

target: T2, recombinant full-length BECN1 protein (Beclin 1) (human, UniProt Q14457 1-450); experiment: SPR; OpenSPR; biotinylated rEtf-1 (1 μM) immobilised on a streptavidin sensor chip, BECN1 dilutions as analyte; 20 mM Tris pH 8.0, 100 mM NaCl, 0.05% Tween 20; 30 µL/min; conditions: both partners purified
T2 construct: also called ATG6; source: size exclusion chromatography
T2 sequence (Q14457 whole entry): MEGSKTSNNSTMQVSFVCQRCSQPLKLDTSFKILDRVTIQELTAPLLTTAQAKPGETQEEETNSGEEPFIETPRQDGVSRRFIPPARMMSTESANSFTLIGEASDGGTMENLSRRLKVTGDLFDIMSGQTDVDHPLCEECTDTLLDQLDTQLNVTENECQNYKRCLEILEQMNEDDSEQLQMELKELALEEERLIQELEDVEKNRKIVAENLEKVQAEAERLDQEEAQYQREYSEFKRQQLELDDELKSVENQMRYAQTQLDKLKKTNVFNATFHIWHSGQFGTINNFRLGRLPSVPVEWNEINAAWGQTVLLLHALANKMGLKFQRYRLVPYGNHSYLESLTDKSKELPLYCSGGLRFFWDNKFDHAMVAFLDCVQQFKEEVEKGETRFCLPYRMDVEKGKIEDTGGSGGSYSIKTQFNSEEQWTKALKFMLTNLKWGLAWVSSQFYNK

Q: B12 was tested. Which Kd did it give?
A: 0.06 ± 0.001 µM
